# Results as given in the DeepSol protein solubility set.
# Assay: soluble on expression in E. coli; label from the status in PepcDB or PDB records
row,Sequence,soluble on expression in E. coli
1,MGSDKIHHHHHHMTKHLDVGQCLTIIEGTNTALKSYMDHFDFMEAAISRVLELEGSLKGKGGEALLRNYQELQLPAIRAARAFISSMKEMGEKLRSLILSFEPSENGMVSEDFYRNQVTRGYDRFEQFMEQNKAEVDAIAASVSHIIDLGKLDIRHVQDRVDDARKHANDTVEGLYELDHEGMRLMRELQRDMAELKAILKKVTEWTVSGGALLNGVDLNDVRSHFADKTLHTKAPEVSVKLSSPNPLIQYANDFPLRFKYDTMRSIMKVFDLSHHHKWFSNRIKSLPLTSLFIMARWNVNTKSDNYLKVH,not soluble
2,MGSDKIHHHHHHKITQDDLKQLDGNLTPLGAERAANKDGTIPAWTGKWLGAPTGVAYKAGERYQDPYADEKPLYVITAQNMAQYDKQLTDGLKALFKKYPETFKMPIYATHRDFRYDDGTYKAIRTYAPQIEMLGEGNGVKNSPPTLPYPIPKTGLELLWNLRFASAIESERAVYDQAVVYADGKVAWGKVKYEIWSPKDGQHFDAKAPMNARAFYRMYTELPLRDRGSIITGYTVYDSPEPDSNRAWSYNPGTRRVRQAPEYGYDQPFGPGGFRTVDDDHFFNGSPERYDWKIVGKRELYVPYNNYRMSSPSIKYQDLLTKGHADPSNMRYELHRVWVLEATLKQGFRHQYAKRIIYIDEDSWYGVLADNYDSRGQLWRTNIQANVYAYDAKRFYPTAVFFHDLISGAYLADRLTNEGQPPRLNSEPKYVEAYFSPDAARGAGN,not soluble
3,MKIAMLGSLGNINRIVVPKLVQAGHDVTVISTSPKRQASIEAIGAHAAIGTMTDVDFLSTTFTDKDVVYLMLSGGIGDDPFEGAVAQAKIWKQAIENAGVTNVVNLSSIGADADEVAGSLHAYNLIEHELRQLDGVNLAFVRPTGFYANLFGNLATIKAEHKIYSSTPAASAQKYVAPEDIASVVYPLIDHTPAGITVKYAFSDTFTGDQFVADLRDALNMPDLQWVQISDEQYQANLTNHGVPVKIAASLVQTSRYQREPEGLYADLNASDTSAGQVKLADFVRTFVVAYNSEGGYQSHTIAD,not soluble
4,DIVLTQSPSSLAVSLGQRATISCRASQSVSTSSFRYMHWYQQKPGQPPRLLIKYASNLESGVPARFSGSGSGTDFTLNIHPVEEEDTATYYCQHSWEIPYTFGGGTKLEIKRADAAPTVSIFPPSSEQLTSGGASVVCFLNNFYPKDINVKWKIDGSERQNGVLNSWTDQDSKDSTYSMSSTLTLTKDEYERHNSYTCEATHKTSTSPIVKSFNRNEC,soluble
5,MSGGKLPEGWATSTINEMCNLNPKLKLDDDLDVGFMPMAGVPTTYLGKCNFETKKWSEVKKGFTQFQNDDVIFAKITPCFENGKAVVIKEFPNGYGAGSTEYYVLRSINGLINPHWLFALVKTKDFLTNGALNMSGSVGHKRVTKEFLENYGVPVPPLAEQKVIAEKLDTLLAQVDSTKARLEQIPQILKRFRQSVIVAAVNGQLTKELHKKNKFKLTELNISIPSLWKISEIGQFADVKGGKRLPKGESLIAENTGFPYIRAGQLKNGTVLPEGQLYLEEYIQKSISRYTVSSGDLYITIVGACIGDAGIIPDVYNNANLTENAAKICNLNENIFNRFLSLWLRSSYLQDIINSEIKSGAQGKLALARIKSLPLILPPLQEQHEIVRRVEQLFAYADTIEKQVNNALTRVNSLTQSILAKAFRGELTAQWRAENPELISGENSAAALLEKIKAERAASGGKKTSRKKA,not soluble
6,MGPVPIKLALVIPNYNHSAAISQALSELAALNLPCYLIDDGSNDETRYLLQSLAEQHDWVTLLQHPYNRGKGAAVMTGLRSAYRDGFTHALQVDADGQHNLSDIPAMLAKAQAKPDALISGKPEYDKSVPKGRLYGRYLTHFWVWVETLSFDIQDSMCGFRVYPLAATERLFSKQALTERMDFDIEILVKLYWQGVEILFHPTKVIYPENGVSHFQCVADNVRISKLHTRLFFGMLKRLPQLLRRKQAAKSTSSAHTATHWSAMKERGSYWGIKLLVESYRFGGHWLCRAIMYPVICYFFLTGKVSREASRDFLRRVQHLEPQHPQLNQPVGWRDSLNHFIAFGNAALDRIDAWCDRIQLSQVDFPDRQVLADQLESGKGAVLLVSHLGNLELCRAISIHQRKVKVNVMVLTSHAENFNNVLKQLNPNSSLNLIQVTELNPATSMLLQQKIEDGELVVIAGDRTSSHAQGRVVYAPFMGQDAAFPQGPFILAGLLDCPVYLMFCLREQGRYRVHLERFAETLKGPRAGRMERLQQAVYRYSERLEHYARREPLQWFNFFDFWRDDNQVNRATSAHKTTAALPEQERTTDRTEHLLEHHHHHH,soluble
7,MGSDKIHHHHHHMTLEIAQKRTIKLLKSSTPKEKLNKFVKGYVPTHYKRLSISMEKAIELAIIGATESLAYYGDRLYFTQALLMGAVVSGEYDNIIVVTPSQYGKSWLSSRIAVWLADHNRRCYVAGGKKDTTDIIMQHVTDTLQTVDESIARKLLEPVDKLERLQTGLSKRKISFSGGGSIEGISLGEHFKGNKSGNQAIGRGGDYIIDESAFVSNETYAELGRRNFANVDGKNYLSFEISNPHNKGRFYDKLTQENIPKGMLVVWADVRTAFEEDRVKSIEQVISSEFFQNKSTCQRYFLCELPDENEDGMFGTPQTEEEHTEKNWEYFLGVDSAYKGKDKIKATLSALDAQGQVHVIDTIEIEKGDWQDGVTSKKIITQLLMIIEHFEVKGVCVDVGYGVYIVEGLAHINGDFELHGINFGAGTTKERVEKNHYSAKYGANKRAEMHIDLQENIDNRNIFFTEKVYEEVIDELVLVSSKIKSNGKTAIVPKEEIKAKLGHSPDTLDSVLLSLHAIILYKLNERFYIYS,not soluble
8,MAVESRSRVTSKLVKAHRAMLNSVTQEDLKVDRLPGADYPNPSKKYSSRTEFRDKTDYIMYNPRPRDEPSSENPVSVSPLLCELAAARSRIHFNPTETTIGIVTCGGICPGLNDVIRSITLTGINVYNVKRVIGFRFGYWGLSKKGSQTAIELHRGRVTNIHHYGGTILGSSRGPQDPKEMVDTLERLGVNILFTVGGDGTQRGALVISQEAKRRGVDISVFGVPKTIDNDLSFSHRTFGFQTAVEKAVQAIRAAYAEAVSANYGVGVVKLMGRDSGFIAAQAAVASAQANICLVPENPISEQEVMSLLERRFCHSRSCVIIVAEGFGQDWGRGSGGYDASGNKKLIDIGVILTEKVKAFLKANKSRYPDSTVKYIDPSYMIRACPPSANDALFCATLATLAVHEAMAGATGCIIAMRHNNYILVPIKVATSVRRVLDLRGQLWRQVREITVDLGSDVRLARKLEIRRELEAINRNRDRLHEELAKL,soluble
9,MQAYFDQLDRVRYEGPQSTNPLAFRHYNPDELVLGKRMEDHLRFAACYWHTFCWNGADMFGVGAFNRPWQQPGEALELAKRKADVAFEFFHKLNVPFYCFHDVDVSPEGASLKEYKNNFAQMVDVLAAKQEQSGVKLLWGTANCFTNPRYGAGAATNPDPEVFSWAATQVVTAMNATHKLGGENYVLWGGREGYETLLNTDLRQEREQIGRFMQMVVEHKHKMGFQGTLLIEPKPQEPTKHQYDYDVATVYGFLKQFGLEKEIKVNIEANHATLAGHSFHHEIATAIALGIFGSVDANRGDAQLGWDTDQFPISVEENALVMYEILKAGGFTTGGLNFDAKVRRQSTDKYDLFYGHIGAMDTMALSLKIAARMVEDGELDKRVAKRYAGWNGELGQQILKGQLSLGELAQYAEQHNLAPVHQSGHQELLENLVNRYLFDK,not soluble
10,EKEKKNVFMRTFEAISRNFSEIFAKLSPGGSARLILENPEDPFSGGLEIEAKPAGKDVKRIEAMSGGEKALTALAFVFAIQKFKPAPFYLFDEIDAHLDDANVKRVADLIKESSKESQFIVITLRDVMMANADKIIGVSMRDGVSKVVSLSLEKAMKILEEIRKKQGWEHGN,soluble
11,MGSDKIHHHHHHMPATFAHCLLAREAMERFGKSKLFPGVLKTKNHFVVMGATGPDYPYLTDVMKYGVLHIGHNWANRMHYENIDGFILEGIKKLSSMNKTSEEFKNCLAWFSGYVSHVVADSYLHPVVNSTVHGIYLFTNEKHGRCELVQDIYIFKKMTDTDICAAAARDRNSFGYLSILDDCSDPQDLDKIHPHIRVFWSELLKAAHPYASDYFGDLNLDEWHKNYKGRVDFAADSQSIFRHVLDIANAPRYVPWTASSISKEERSKYIDNVETPRGTKQSYDTLFSLVADQIAATWNALFPYIKNGQVPPATLVKDWNLDTGVDESKIDFWKEA,not soluble
12,MAHHHHHHMLSLPRDHHYHAHHSGTEFVPFDQVIGITPDGVPVISNGNEFHFSNLESVTPSYQALCSSVRKAPVIVPCTKLGAKWQCVEFARRYLASRKAVWTASMPIAADMLRAEPPFVHVQDSTPVEFTRTPNRSHGPAPAMSDIIVWDQSEETPLGHVAVVTEVLPEAVRVAEQNQGFERWPQGMLYSREISMQRSSAGTVELVDEDSVLGWVTLQCPYYDFRDGDLADKFRIATGPGCIVRQPFPKHVELPWVQPEERCDFYLKRSLAIGGNVGDDARAEECDVPSAFFFYFLDY,not soluble
13,MKLVVCSESDTAGQNIKDNLLTFADFEEKDVGEFKLYLSDEFYIAETKERLIYADHIDEKLAKYIDFEEILFASRHSSKDGRKIFTVHVSGNVGTADFGGKPYSLAKPSPQTMKNYVLALRERLDRKPEFEFTMEVTHHGPSEISKPSAFYEIGSTEEEWKDREAAEVVAEAMLDAIRAEKMDWNVAVGVGGTHYAPRQTEIMLTTTFTFGHNFAKYTFEHLTAEFLVKAVKLSEAEYIIIDEKSVNSAVKKIVNEAAEVAGVEVLKSKKVKKDFRLV,soluble
14,MTTLRTLMAVSLVLNLAACGFKLRGQVSELPFERVYITAPAGLTIGSDLERVISTHTRAKVVNKAEKSEAIIQIVHAIREKRILSLSESGRVREFELVYRVAARLLDAHNAELASLQEIRLTRILPFLDAQELAKAAEEEMLYKDMQKDAVQQILRQVSAVTSAGLEHHHHHH,not soluble
15,MIYPYNSTISLGTVSLNVTDLAKMTTFYTSIIGLQVLSQDTTSRQLTTDGKTVILELRQTPLPGDKAYGLYHTAFLVPDRHSLGLVLNHFLTRSISLEGAADHGHSEAIYLSDPEGNGIEIYHDKAVEHWDIRDNGQIIGVTEPTDTKSILEQLTDIPKHFLLAQDTRIRHVHLSVKNALASSLLYQKVFDLGDKMTIPSASWIASGNYYHHLAFNHWSAPYLKKHQEGAPGLAFLTIHIETPLLFSATLKKARLHGLAILQEDSSSFTTEDEEGIRVNVILGQD,not soluble
16,HMNAEINPLHAYFKLPNTVSLVAGSSEGETPLNAFDGALLNAGIGNVALIRISSIMPPEAEIVPLPKLPMGALVPTAYGYIISDVPGETISAAISVAIPKDKSLCGLIMEYEGKCSKKEAEKTVREMAKIGFEMRGWELDRIESIAVEHTVEKLGCAFAAAALWYK,soluble
17,MAADYDKLFRPHEGMEAPDDMAAQPFFDPSASFPPAPASANLPKPNGQTPPPTSDDLSERFVSAPPPPPPPPPPPPPTPMPIAAGEPPSPEPAASKPPTPPMPIAGPEPAPPKPPTPPMPIAGPEPAPPKPPTPPMPIAGPAPTPTESQLAPPRPPTPQTPTGAPQQPESPAPHVPSHGPHQPRRTAPAPPWAKMPIGEPPPAPSRPSASPAEPPTRPAPQHSRRARRGHRYRTDTERNVGKVATGPSIQARLRAEEASGAQLAPGTEPSPAPLGQPRSYLAPPTRPAPTEPPPSPSPQRNSGRRAERRVHPDLAAQHAAAQPDSITAATTGGRRRKRAAPDLDATQKSLRPAAKGPKVKKVKPQKPKATKPPKVVSQRGWRHWVHALTRINLGLSPDEKYELDLHARVRRNPRGSYQIAVVGLKGGAGKTTLTAALGSTLAQVRADRILALDADPGAGNLADRVGRQSGATIADVLAEKELSHYNDIRAHTSVNAVNLEVLPAPEYSSAQRALSDADWHFIADPASRFYNLVLADCGAGFFDPLTRGVLSTVSGVVVVASVSIDGAQQASVALDWLRNNGYQDLASRACVVINHIMPGEPNVAVKDLVRHFEQQVQPGRVVVMPWDRHIAAGTEISLDLLDPIYKRKVLELAAALSDDFERAGRR,soluble
